IntAct's records for PubMed 34948388

B1: Multifunctional methyltransferase subunit TRM112-like protein (Homo sapiens), Q9UI30 (parent)
chain: MKLLTHNLLSSHVRGVGSRGFPLRLQATEVRICPVEFNPNFVARMIPKVEWSAFLEAADNLRLIQVPKGPVEGYEENEEFLRTMHHLLLEVEVIEGTLQCPESGRMFPISRGIPNMLLSEEETES
partner: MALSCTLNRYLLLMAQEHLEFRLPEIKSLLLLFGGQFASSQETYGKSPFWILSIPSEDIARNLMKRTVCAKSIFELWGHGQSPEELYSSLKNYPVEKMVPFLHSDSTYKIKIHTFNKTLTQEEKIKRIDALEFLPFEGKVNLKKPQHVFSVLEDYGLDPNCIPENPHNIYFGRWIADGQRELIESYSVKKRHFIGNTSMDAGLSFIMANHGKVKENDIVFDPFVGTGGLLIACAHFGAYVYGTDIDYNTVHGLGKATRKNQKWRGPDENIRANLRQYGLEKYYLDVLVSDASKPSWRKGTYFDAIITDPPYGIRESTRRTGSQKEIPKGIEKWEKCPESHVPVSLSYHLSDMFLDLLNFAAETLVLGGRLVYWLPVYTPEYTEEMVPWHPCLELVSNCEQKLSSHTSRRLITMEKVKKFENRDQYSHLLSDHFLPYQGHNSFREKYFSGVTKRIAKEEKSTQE
B2: Multifunctional methyltransferase subunit TRM112-like protein (Homo sapiens), Q9UI30 (parent)
chain: B1 chain
partner: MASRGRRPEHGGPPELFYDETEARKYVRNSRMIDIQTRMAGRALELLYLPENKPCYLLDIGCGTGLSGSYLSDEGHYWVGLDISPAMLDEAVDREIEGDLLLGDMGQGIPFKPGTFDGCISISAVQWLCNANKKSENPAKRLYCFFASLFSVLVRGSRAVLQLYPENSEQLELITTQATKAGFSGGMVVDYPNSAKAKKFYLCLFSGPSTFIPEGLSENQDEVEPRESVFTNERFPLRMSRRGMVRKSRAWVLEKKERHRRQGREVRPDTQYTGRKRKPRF

Variants of: B1
Conditions: with trm11_human TRMT11, Q7Z4G4
With MKLLTHNLLFSHVRGVGSRGFPLRLQATEVRICPVEFNPNFVARMIPKVEWSAFLEAADNLRLIQVPKGPVEGYEENEEFLRTMHHLLLEVEVIEGTLQCPESGRMFPISRGIPNMLLSEEETES [S10F] the “effect of a mutation on the interaction” value was “with no effect”.
For MKLLTHNWLSSHVRGVGSRGFPLRLQATEVRICPVEFNPNFVARMIPKVEWSAFLEAADNLRLIQVPKGPVEGYEENEEFLRTMHHLLLEVEVIEGTLQCPESGRMFPISRGIPNMLLSEEETES [L8W], the “effect of a mutation on the interaction” value was “with no effect”.
In the case of MKLLTHNLLSSHVRGVGSRGFPLRLQATEVRICPVEFNPNFVARMIPKVEWSAFLEAADNLRLIQVPKGPVEGYEENEEFLRTMHHLLLEVEVIEGTLQCPESGRMFPISRGAPNMLLSEEETES [I113A], the “effect of a mutation on the interaction” value is reported as “with no effect”.
For MKLLAHNLLSSHVRGVGSRGFPLRLQATEVRICPVEFNPNFVARMIPKVEWSAFLEAADNLRLIQVPKGPVEGYEENEEFLRTMHHLLLEVEVIEGTLQCPESGRMFPISRGIPNMLLSEEETES [T5A], the “effect of a mutation on the interaction” value was “disrupting interaction strength”.
For MKLLTHNLLSSHVRGVGSRGFPLRLQATEVRICPVEFNPNFVARAIPKVEWSAFLEAADNLRLIQVPKGPVEGYEENEEFLRTMHHLLLEVEVIEGTLQCPESGRMFPISRGIPNMLLSEEETES [M45A], the “effect of a mutation on the interaction” value was “with no effect”.
MKLLTHNLLSSHVRGVGSRGFPLRLQATEVRICPVEFNPNFVARMIPAVEWSAFLEAADNLRLIQVPKGPVEGYEENEEFLRTMHHLLLEVAVIEGTLQCPESGRMFPISRGIPNMLLSEEETES [K48A;E92A] was tested, and the “effect of a mutation on the interaction” value was “disrupting interaction strength”.
In the case of MKLLTHNLLSSHVRGVGSRGFPLRLQATEVRICPVEFNPNFVARMIPKVAWSAFLEAADNLRLIQVPKGPVEGYEENEEFLRTMHHLLLEVEVIEGTLQCPESGRMFPISRGIPNMLLSEEETES [E50A], the “effect of a mutation on the interaction” value is reported as “with no effect”.
MKLLTHNLLSSHVRGVGSRGFPLRLQATEVRICPVEFNPNFVARMIPKVEWSAFLEAADNLRLIQVPKGPVEGYEENEEFLRTMHHLLLEVEVIEGTLQCPESGRMAPISRGIPNMLLSEEETES [F107A] was tested, and the “effect of a mutation on the interaction” value was “decreasing interaction strength”.
With MKLLTHNLLSSHVRGVGSRGFPLRLQATEVRICPVEFNPNFVARMIPAVEWSAFLEAADNLRLIQVPKGPVEGYEENEEFLRTMHHLLLEVEVIEGTLQCPESGRMFPISRGIPNMLLSEEETES [K48A] the “effect of a mutation on the interaction” value was “with no effect”.
With MKLLTHNLLSSHVRGVGSRGFPLRLQATEVRICPVEFNPNFVARMIPKVEWSAFLEAADNLRLIQVPKGPVEGYEENEEFLRTMHHLLLEVAVIEGTLQCPESGRMFPISRGIPNMLLSEEETES [E92A] the “effect of a mutation on the interaction” value was “decreasing interaction strength”.

Variants of: B2
Conditions: with bud23_human BUD23, O43709
For MKLLTHNLLSSHVRGVGSRGFPLRLQATEVRICPVEFNPNFVARMIPKVEWSAFLEAADNLRLIQVPKGPVEGYEENEEFLRTMHHLLLEVEVIEGTLQCPESGRMFPISRGAPNMLLSEEETES [I113A], the “effect of a mutation on the interaction” value was “with no effect”.
With MKLLAHNLLSSHVRGVGSRGFPLRLQATEVRICPVEFNPNFVARMIPKVEWSAFLEAADNLRLIQVPKGPVEGYEENEEFLRTMHHLLLEVEVIEGTLQCPESGRMFPISRGIPNMLLSEEETES [T5A] the “effect of a mutation on the interaction” value was “decreasing interaction strength”.
With MKLLTHNLLSSHVRGVGSRGFPLRLQATEVRICPVEFNPNFVARMIPAVEWSAFLEAADNLRLIQVPKGPVEGYEENEEFLRTMHHLLLEVEVIEGTLQCPESGRMFPISRGIPNMLLSEEETES [K48A] the “effect of a mutation on the interaction” value was “with no effect”.
With MKLLTHNLLSSHVRGVGSRGFPLRLQATEVRICPVEFNPNFVARMIPKVEWSAFLEAADNLRLIQVPKGPVEGYEENEEFLRTMHHLLLEVEVIEGTLQCPESGRMAPISRGIPNMLLSEEETES [F107A] the “effect of a mutation on the interaction” value was “disrupting interaction strength”.
MKLLTHNLLSSHVRGVGSRGFPLRLQATEVRICPVEFNPNFVARAIPKVEWSAFLEAADNLRLIQVPKGPVEGYEENEEFLRTMHHLLLEVEVIEGTLQCPESGRMFPISRGIPNMLLSEEETES [M45A] was tested, and the “effect of a mutation on the interaction” value was “with no effect”.
MKLLTHNWLSSHVRGVGSRGFPLRLQATEVRICPVEFNPNFVARMIPKVEWSAFLEAADNLRLIQVPKGPVEGYEENEEFLRTMHHLLLEVEVIEGTLQCPESGRMFPISRGIPNMLLSEEETES [L8W] was tested, and the “effect of a mutation on the interaction” value was “with no effect”.
With MKLLTHNLLSSHVRGVGSRGFPLRLQATEVRICPVEFNPNFVARMIPKVEWSAFLEAADNLRLIQVPKGPVEGYEENEEFLRTMHHLLLEVAVIEGTLQCPESGRMFPISRGIPNMLLSEEETES [E92A] the “effect of a mutation on the interaction” value was “with no effect”.
With MKLLTHNLLSSHVRGVGSRGFPLRLQATEVRICPVEFNPNFVARMIPKVAWSAFLEAADNLRLIQVPKGPVEGYEENEEFLRTMHHLLLEVEVIEGTLQCPESGRMFPISRGIPNMLLSEEETES [E50A] the “effect of a mutation on the interaction” value was “with no effect”.
In the case of MKLLTHNLLFSHVRGVGSRGFPLRLQATEVRICPVEFNPNFVARMIPKVEWSAFLEAADNLRLIQVPKGPVEGYEENEEFLRTMHHLLLEVEVIEGTLQCPESGRMFPISRGIPNMLLSEEETES [S10F], the “effect of a mutation on the interaction” value is reported as “with no effect”.
In the case of MKLLTHNLLSSHVRGVGSRGFPLRLQATEVRICPVEFNPNFVARMIPAVEWSAFLEAADNLRLIQVPKGPVEGYEENEEFLRTMHHLLLEVAVIEGTLQCPESGRMFPISRGIPNMLLSEEETES [K48A;E92A], the “effect of a mutation on the interaction” value is reported as “with no effect”.
